# Values quoted from earlier work, collected in US11229683B2, “Hematopoietic growth factor proteins and analogs thereof and angiotensin converting enzyme inhibitors for treatment of radiation exposure” (priority 2015, dated 2022).
# Where two headings read alike, the source gives them in different places.
# Legend:
# [1] = system: chemotherapy (cyclophosphamide)-treated rats; conditions: single injection; cited from earlier work
# irradiated monkeys = conditions: cited from earlier work; for survival versus vehicle: daily sc treatment started 48 h post-TBI
molecule,measurement,setting,value
"G-CSF: human G-CSF (filgrastim (Neupogen, Amgen, Inc.) (protein, listed as Homo sapiens) TPLGPASSLPQSFLLKCLEQVRKIQGDGAALQEKLCATYKLCHPEELVLLGHSLGIPWAPLSSCPSQALQLAGCLSQLHSGLFLYQGLLQALEGISPELGPTLDTLQLDVADFATTIWQQMEELGMAPALQPTQGAMPAFASAFQRRAGGVLVASHLQSFLEVSYRVLRHLAQP",recovery from neutropenia,[1],ineffective
same,60-day survival of rhesus monkeys,"irradiated monkeys; daily sc 0.01 mg/kg/day for 16-23 days, started 24 h post-TBI",increased 60-day survival
same,survival of irradiated monkeys,"irradiated monkeys; daily sc beginning 24 h post-TBI for about 16 days, placebo 50%",80%
same,survival versus vehicle,irradiated monkeys,did not increase survival
same,survival versus vehicle,irradiated monkeys; listed as filgrastim,but not when administered at 48 h post-TBI
